Reference: patent US20220074941A1, “HSP90 COMBINATION THERAPY” (Sloan-Kettering Institute for Cancer Research, priority 2011, published 2022)

B1: VAC14 (protein, UniProt Q08AM6 1-782, looked up)
Protein VAC14 homolog: MNPEKDFAPLTPNIVRALNDKLYEKRKVAALEIEKLVREFVAQNNTVQIKHVIQTLSQEFALSQHPHSRKGGLIGLAACSIALGKDSGLYLKELIEPVLTCFNDADSRLRYYACEALYNIVKVARGAVLPHFNVLFDGLSKLAADPDPNVKSGSELLDRLLKDIVTESNKFDLVSFIPLLRERIYSNNQYARQFIISWILVLESVPDINLLDYLPEILDGLFQILGDNGKEIRKMCEVVLGEFLKEIKKNPSSVKFAEMANILVIHCQTTDDLIQLTAMCWMREFIQLAGRVMLPYSSGILTAVLPCLAYDDRKKSIKEVANVCNQSLMKLVTPEDDELDELRPGQRQAEPTPDDALPKQEGTASGGPDGSCDSSFSSGISVFTAASTERAPVTLHLDGIVQVLNCHLSDTAIGMMTRIAVLKWLYHLYIKTPRKMFRHTDSLFPILLQTLSDESDEVILKDLEVLAEIASSPAGQTDDPGPLDGPDLQASHSELQVPTPGRAGLLNTSGTKGLECSPSTPTMNSYFYKFMINLLKRFSSERKLLEVRGPFIIRQLCLLLNAENIFHSMADILLREEDLKFASTMVHALNTILLTSTELFQLRNQLKDLKTLESQNLFCCLYRSWCHNPVTTVSLCFLTQNYRHAYDLIQKFGDLEVTVDFLAEVDKLVQLIECPIFTYLRLQLLDVKNNPYLIKALYGLLMLLPQSSAFQLLSHRLQCVPNPELLQTEDSLKAAPKSQKADSPSIDYAELLQHFEKVQNKHLEVRHQRSGRGDHLDRRVVL
B2: FTSJD2 (protein, UniProt Q8N1G2 1-835, looked up)
Cap-specific mRNA …: MKRRTDPECTAPIKKQKKRVAELALSLSSTSDDEPPSSVSHGAKASTTSLSGSDSETEGKQHSSDSFDDAFKADSLVEGTSSRYSMYNSVSQKLMAKMGFREGEGLGKYSQGRKDIVEASSQKGRRGLGLTLRGFDQELNVDWRDEPEPSACEQVSWFPECTTEIPDTQEMSDWMVVGKRKMIIEDETEFCGEELLHSVLQCKSVFDVLDGEEMRRARTRANPYEMIRGVFFLNRAAMKMANMDFVFDRMFTNPRDSYGKPLVKDREAELLYFADVCAGPGGFSEYVLWRKKWHAKGFGMTLKGPNDFKLEDFYSASSELFEPYYGEGGIDGDGDITRPENISAFRNFVLDNTDRKGVHFLMADGGFSVEGQENLQEILSKQLLLCQFLMALSIVRTGGHFICKTFDLFTPFSVGLVYLLYCCFERVCLFKPITSRPANSERYVVCKGLKVGIDDVRDYLFAVNIKLNQLRNTDSDVNLVVPLEVIKGDHEFTDYMIRSNESHCSLQIKALAKIHAFVQDTTLSEPRQAEIRKECLRLWGIPDQARVAPSSSDPKSKFFELIQGTEIDIFSYKPTLLTSKTLEKIRPVFDYRCMVSGSEQKFLIGLGKSQIYTWDGRQSDRWIKLDLKTELPRDTLLSVEIVHELKGEGKAQRKISAIHILDVLVLNGTDVREQHFNQRIQLAEKFVKAVSKPSRPDMNPIRVKEVYRLEEMEKIFVRLEMKIIKGSSGTPKLSYTGRDDRHFVPMGLYIVRTVNEPWTMGFSKSFKKKFFYNKKTKDSTFDLPADSIAPFHICYYGRLFWEWGDGIRVHDSQKPQDQDKLSKEDVLSFIQMHRA
B3: SARM1 (protein, UniProt Q6SZW1 28-724, looked up)
NAD(+) hydrolase SARM1: LAVPGPDGGGGTGPWWAAGGRGPREVSPGAGTEVQDALERALPELQQALSALKQAGGARAVGAGLAEVFQLVEEAWLLPAVGREVAQGLCDAIRLDGGLDLLLRLLQAPELETRVQAARLLEQILVAENRDRVARIGLGVILNLAKEREPVELARSVAGILEHMFKHSEETCQRLVAAGGLDAVLYWCRRTDPALLRHCALALGNCALHGGQAVQRRMVEKRAAEWLFPLAFSKEDELLRLHACLAVAVLATNKEVEREVERSGTLALVEPLVASLDPGRFARCLVDASDTSQGRGPDDLQRLVPLLDSNRLEAQCIGAFYLCAEAAIKSLQGKTKVFSDIGAIQSLKRLVSYSTNGTKSALAKRALRLLGEEVPRPILPSVPSWKEAEVQTWLQQIGFSKYCESFREQQVDGDLLLRLTEEELQTDLGMKSGITRKRFFRELTELKTFANYSTCDRSNLADWLGSLDPRFRQYTYGLVSCGLDRSLLHRVSEQQLLEDCGIHLGVHRARILTAAREMLHSPLPCTGGKPSGDTPDVFISYRRNSGSQLASLLKVHLQLHGFSVFIDVEKLEAGKFEDKLIQSVMGARNFVLVLSPGALDKCMQDHDCKDWVHKEIVTALSCGKNIVPIIDGFEWPEPQVLPEDMQAVLTFNGIKWSHEYQEATIEKIIRFLQGRSSRDSSAGSDTSLEGAAPMGPT
B4: NOP2 (protein, UniProt P46087 1-812, looked up)
28S rRNA …: MGRKLDPTKEKRGPGRKARKQKGAETELVRFLPAVSDENSKRLSSRARKRAAKRRLGSVEAPKTNKSPEAKPLPGKLPKGISAGAVQTAGKKGPQSLFNAPRGKKRPAPGSDEEEEEEDSEEDGMVNHGDLWGSEDDADTVDDYGADSNSEDEEEGEALLPIERAARKQKAREAAAGIQWSEEETEDEEEEKEVTPESGPPKVEEADGGLQINVDEEPFVLPPAGEMEQDAQAPDLQRVHKRIQDIVGILRDFGAQREEGRSRSEYLNRLKKDLAIYYSYGDFLLGKLMDLFPLSELVEFLEANEVPRPVTLRTNTLKTRRRDLAQALINRGVNLDPLGKWSKTGLVVYDSSVPIGATPEYLAGHYMLQGASSMLPVMALAPQEHERILDMCCAPGGKTSYMAQLMKNTGVILANDANAERLKSVVGNLHRLGVTNTIISHYDGRQFPKVVGGFDRVLLDAPCSGTGVISKDPAVKTNKDEKDILRCAHLQKELLLSAIDSVNATSKTGGYLVYCTCSITVEENEWVVDYALKKRNVRLVPTGLDFGQEGFTRFRERRFHPSLRSTRRFYPHTHNMDGFFIAKFKKFSNSIPQSQTGNSETATPTNVDLPQVIPKSENSSQPAKKAKGAAKTKQQLQKQQHPKKASFQKLNGISKGADSELSTVPSVTKTQASSSFQDSSQPAGKAEGIREPKVTGKLKQRSPKLQSSKKVAFLRQNAPPKGTDTQTPAVLSPSKTQATLKPKDHHQPLGRAKGVEKQQLPEQPFEKAAFQKQNDTPKGPQPPTVSPIRSSRPPPAKRKKSQSRGNSQLLLS
B5: NFKB1 (protein)
chain: MAEDDPYLGRPEQMFHLDPSLTHTIFNPEVFQPQMALPTDGPYLQILEQPKQRGFRFRYVCEGPSHGGLPGASSEKNKKSYPQVKICNYVGPAKVIVQLVTNGKNIHLHAHSLVGKHCEDGICTVTAGPKDMVVGFANLGILHVTKKKVFETLEARMTEACIRGYNPGLLVHPDLAYLQAEGGGDRQLGDREKELIRQAALQQTKEMDLSVVRLMFTAFLPDSTGSFTRRLEPVVSDAIYDSKAPNASNLKIVRMDRTAGCVTGGEEIYLLCDKVQKDDIQIRFYEEEENGGVWEGFGDFSPTDVHRQFAIVFKTPKYKDINITKPASVFVQLRRKSDLETSEPKPFLYYPEIKDKEEVQRKRQKLMPNFSDSFGGGSGAGAGGGGMFGSGGGGGGTGSTGPGYSFPHYGFPTYGGITFHPGTTKSNAGMKHGTMDTESKKDPEGCDKSDDKNTVNLFGKVIETTEQDQEPSEATVGNGEVTLTYATGTKEESAGVQDNLFLEKAMQLAKRHANALFDYAVTGDVKMLLAVQRHLTAVQDENGDSVLHLAIIHLHSQLVRDLLEVTSGLISDDIINMRNDLYQTPLHLAVITKQEDVVEDLLRAGADLSLLDRLGNSVLHLAAKEGHDKVLSILLKHKKAALLLDHPNGDGLNAIHLAMMSNSLPCLLLLVAAGADVNAQEQKSGRTALHLAVEHDNISLAGCLLLEGDAHVDSTTYDGTTPLHIAAGRGSTRLAALLKAAGADPLVENFEPLYDLDDSWENAGEDEGVVPGTTPLDMATSWQVFDILNGKPYEPEFTSDDLLAQGDMKQLAEDVKLQLYKLLEIPDPDKNWATLAQKLGLGILNNAFRLSPAPSKTLMDNYEVSGGTVRELVEALRQMGYTEAIEVIQAASSPVKTTSQAHSLPLSPASTRQQIDELRDSDSVCDSGVETSFRKLSFTESLTSGASLLTLNKMPHDYGQEGPLEGKI
B6: SLC3A2 (protein, UniProt P08195 1-630, looked up)
Amino acid transporter heavy …: MELQPPEASIAVVSIPRQLPGSHSEAGVQGLSAGDDSELGSHCVAQTGLELLASGDPLPSASQNAEMIETGSDCVTQAGLQLLASSDPPALASKNAEVTGTMSQDTEVDMKEVELNELEPEKQPMNAASGAAMSLAGAEKNGLVKIKVAEDEAEAAAAAKFTGLSKEELLKVAGSPGWVRTRWALLLLFWLGWLGMLAGAVVIIVRAPRCRELPAQKWWHTGALYRIGDLQAFQGHGAGNLAGLKGRLDYLSSLKVKGLVLGPIHKNQKDDVAQTDLLQIDPNFGSKEDFDSLLQSAKKKSIRVILDLTPNYRGENSWFSTQVDTVATKVKDALEFWLQAGVDGFQVRDIENLKDASSFLAEWQNITKGFSEDRLLIAGTNSSDLQQILSLLESNKDLLLTSSYLSDSGSTGEHTKSLVTQYLNATGNRWCSWSLSQARLLTSFLPAQLLRLYQLMLFTLPGTPVFSYGDEIGLDAAALPGQPMEAPVMLWDESSFPDIPGAVSANMTVKGQSEDPGSLLSLFRRLSDQRSKERSLLHGDFHAFSAGPGLFSYIRHWDQNERFLVVLNFGDVGLSAGLQASDLPASASLPAKADLLLSTQPGREEGSPLELERLKLEPHEGLLLRFPYAA
B7: NOB1 (protein, UniProt Q9ULX3 2-412, looked up)
RNA-binding protein NOB1: APVEHVVADAGAFLRHAALQDIGKNIYTIREVVTEIRDKATRRRLAVLPYELRFKEPLPEYVRLVTEFSKKTGDYPSLSATDIQVLALTYQLEAEFVGVSHLKQEPQKVKVSSSIQHPETPLHISGFHLPYKPKPPQETEKGHSACEPENLEFSSFMFWRNPLPNIDHELQELLIDRGEDVPSEEEEEEENGFEDRKDDSDDDGGGWITPSNIKQIQQELEQCDVPEDVRVGCLTTDFAMQNVLLQMGLHVLAVNGMLIREARSYILRCHGCFKTTSDMSRVFCSHCGNKTLKKVSVTVSDDGTLHMHFSRNPKVLNPRGLRYSLPTPKGGKYAINPHLTEDQRFPQLRLSQKARQKTNVFAPDYIAGVSPFVENDISSRSATLQVRDSTLGAGRRRLNPNASRKKFVKKR

tested on: Hsp90 complexes in K562 cell extract; test: Nano-LC-MS/MS of PU-beads pull-downs; assay type: binding; details: protein identified in PU-beads pull-down of K562 cell extract, Prep 1; QSTAR-Elite QTof MS
Method in brief: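 Lysates pre-cleared overnight at 4 °C with control beads, then pulled down with PU-beads or control beads; eluted proteins (2% SDS boil) gel-separated and analysed by nano LC-MS/MS on a QTof. Mascot identification (p<0.05), spectral counts and sequence coverage evaluated in Scaffold.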

Molecule | Number of Assigned Spectra, K562 Prep 1
B1 | 5
B2 | 3
B3 | 0
B4 | 0
B5 | 1
B6 | 3
B7 | 5

same assay, conditions: protein identified in PU-beads pull-down of K562 cell extract, Prep 2; QSTAR-Elite QTof MS

Molecule | Number of Assigned Spectra, K562 Prep 2
B1 | 2
B2 | 1
B3 | 0
B4 | 0
B5 | 0
B6 | 0
B7 | 0

tested on: Hsp90 complexes in Mia-PaCa-2 cell extract; test: Nano-LC-MS/MS of PU-beads pull-downs; assay type: binding, human; details: protein identified in PU-beads pull-down of Mia-PaCa-2 cell extract; QSTAR-Elite QTof MS
Method in brief: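 Lysates pre-cleared overnight at 4 °C with control beads underwent PU-bead pull-down; bound proteins were SDS-eluted, gel-separated, digested and analyzed by nano-LC-MS/MS on a QTof. Identifications used significance p<0.05, 0.4 Da tolerances and one missed cleavage; unique peptide (spectral) counts and sequence coverage were reported.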

Molecule | Number of Assigned Spectra, Mia-Paca 2
B1 | 0
B2 | 0
B3 | 5
B4 | 7
B5 | 2
B6 | 0
B7 | 0
